Test results as given in the supplement of paper PMC9233669.
This sample holds only a part of the variants without activity.

Columns and labels:
biotinyl-Leu-oxazolone = assay: self-aminoacylation, catalytic enhancement (BLO) (fold over background); higher = more active; k-Seq, kA / k0A0; sequences stand for … in GGGAAUGGAUCCACAUCUACGAAUUC…UUCACUGCAGACUUGACGAAGCUG
Summary of the method: (§1)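 Mutagenized RNA pools with a 21-nt variable region (0.43 μM) reacted with each biotinyl-aminoacyl-oxazolone at 2–1250 μM. Reactions ran in 50 μL HEPES/NaCl/KCl/MgCl2/CaCl2 buffer with 5% acetonitrile, pH 6.9–7.0, for 90 minutes at room temperature. Streptavidin-captured RNA was quantified by triplicate qPCR and Illumina sequencing, and per-sequence fraction reacted was fit to a pseudo-first-order model with 1000 bootstraps. Catalytic enhancement is median kA divided by the uncatalyzed rate, the low-activity peak of a bimodal Gaussian fit.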

biotinyl-Ile-oxazolone = assay: self-aminoacylation, catalytic enhancement (BIO) (fold over background); higher = more active; k-Seq, kA / k0A0; sequences stand for … in GGGAAUGGAUCCACAUCUACGAAUUC…UUCACUGCAGACUUGACGAAGCUG
Summary of the method: as §1

biotinyl-Phe-oxazolone = assay: self-aminoacylation, catalytic enhancement (BFO) (fold over background); higher = more active; k-Seq, kA / k0A0; sequences stand for … in GGGAAUGGAUCCACAUCUACGAAUUC…UUCACUGCAGACUUGACGAAGCUG
Summary of the method: as §1

biotinyl-Met-oxazolone = assay: self-aminoacylation, catalytic enhancement (BMO) (fold over background); higher = more active; k-Seq, kA / k0A0; sequences stand for … in GGGAAUGGAUCCACAUCUACGAAUUC…UUCACUGCAGACUUGACGAAGCUG
Summary of the method: as §1

biotinyl-Trp-oxazolone = assay: self-aminoacylation, catalytic enhancement (BWO) (fold over background); higher = more active; k-Seq, kA / k0A0; sequences stand for … in GGGAAUGGAUCCACAUCUACGAAUUC…UUCACUGCAGACUUGACGAAGCUG
Summary of the method: as §1

biotinyl-Val-oxazolone = assay: self-aminoacylation, catalytic enhancement (BVO) (fold over background); higher = more active; k-Seq, kA / k0A0; sequences stand for … in GGGAAUGGAUCCACAUCUACGAAUUC…UUCACUGCAGACUUGACGAAGCUG
Summary of the method: as §1

| Sequence | self-aminoacylation (biotinyl-Leu-oxazolone) | self-aminoacylation (biotinyl-Ile-oxazolone) | self-aminoacylation (biotinyl-Phe-oxazolone) | self-aminoacylation (biotinyl-Met-oxazolone) | self-aminoacylation (biotinyl-Trp-oxazolone) | self-aminoacylation (biotinyl-Val-oxazolone) |
| --- | --- | --- | --- | --- | --- | --- |
| GCCCACUUCAAGCAAUCGGUC [Fam1B.1 aminoacylation ribozyme variant] | 1.77 | 1.42 | 24.1 | 1.27 | 18.7 | 1.67 |
| CUACUUCAAGGAAUCGGUCUG [Fam1A.1 aminoacylation ribozyme variant] | 1.97 | 1.54 | 8.77 | 1.64 | 3.64 | 1.42 |
| AUUCACGUAGGUUAUCGGGUG [Fam2.2 aminoacylation ribozyme variant] | 4.91 | 3.34 | 38.9 | 5.38 | 4.68 | 5.09 |
| AUUACACUGGUCAUUGAGUGA [Fam2.1 aminoacylation ribozyme variant] | 6.76 | 3.39 | 35 | 6.48 | 7.64 | 3.28 |
| AUUCACCUUGGUGAUCGGGUG [Fam2.2 aminoacylation ribozyme variant] | 4.24 | 3.1 | 23.8 | 3.12 | 5.35 | 3.7 |
| AAAUUUGCUAAUAGUCACAAG [Fam3.1 aminoacylation ribozyme variant] | 1.26 | 1.58 | 2.81 | 1.62 | 1.71 | 1.49 |
| AUUACCAUGGUCAUCGAGUGG [Fam2.1 aminoacylation ribozyme variant] | 3.14 | 1.72 | 2.67 | 2.45 | 2.18 | 1.63 |
| CUACUUCAACCUAUCGGUCUG [Fam1A.1 aminoacylation ribozyme variant] | 0.79 | 1.01 | 1.32 | 1.03 | 1.02 | 0.884 |
| CCACACUUCAAACAAUCGCUC [Fam1B.1 aminoacylation ribozyme variant] | 1.29 | 1.1 | 1.32 | 0.869 | 0.765 | 1.33 |
| UUACACCUAGGUCAUCGGGUG [Fam2.2 aminoacylation ribozyme variant] | 1.87 | 2.25 | 10.5 | 1.92 | 3 | 2.15 |
| AUUACACUGGUCAUCGAGCGA [Fam2.1 aminoacylation ribozyme variant] | 2.29 | 1.64 | 0.889 | 2.15 | 1.8 | 1.96 |
| AAGUUUGCCAAUAGUCGCAUG [Fam3.1 aminoacylation ribozyme variant] | 1.45 | 1.5 | 1.7 | 1.79 | 1.56 | 1.59 |
| AGUCACCUAGGUCAUCGGGUU [Fam2.2 aminoacylation ribozyme variant] | 7.09 | 4.28 | 21.7 | 5.25 | 4.8 | 4.18 |
| CUACUUCAAACAAACGGACUG [Fam1A.1 aminoacylation ribozyme variant] | 0.546 | 0.684 | 0.548 | 0.473 | 0.574 | 0.718 |
| AUUCACCUCGGUCAUCGGGCG [Fam2.2 aminoacylation ribozyme variant] | 3.62 | 2.49 | 19.5 | 3.37 | 2.32 | 3.43 |
| CCAGAGUUCAAGCAAUCGGUC [Fam1B.1 aminoacylation ribozyme variant] | 1.36 | 1.36 | 1.42 | 1.21 | 1.72 | 1.2 |
| CCACACUUCAUGCAAUCGAUC [Fam1B.1 aminoacylation ribozyme variant] | 0.489 | 0.552 | 0.923 | 0.528 | 0.336 | 0.721 |
| AUUAACCUAGGGCAUCGGGUG [Fam2.2 aminoacylation ribozyme variant] | 3.09 | 2.45 | 14.1 | 2.86 | 2.76 | 2.15 |
| CCACUCUUCAAGCAAUAGGUC [Fam1B.1 aminoacylation ribozyme variant] | 0.669 | 0.784 | 0.921 | 0.558 | 0.484 | 0.668 |
| CCACACUUUAAGCAUUCGGUC [Fam1B.1 aminoacylation ribozyme variant] | 1.21 | 1.39 | 1.05 | 1.01 | 1.36 | 1.3 |
| AUUCACCUAGGUCACCCGGUG [Fam2.2 aminoacylation ribozyme variant] | 9.93 | 9.3 | 37.3 | 7.32 | 5.82 | 7.55 |
| CUAUUUCAAAGAAUCGGUCUG [Fam1A.1 aminoacylation ribozyme variant] | 0.86 | 0.887 | 1.19 | 0.93 | 1.12 | 0.794 |
| CUUCUUCAAACAAUAGGUCUG [Fam1A.1 aminoacylation ribozyme variant] | 0.825 | 0.883 | 0.983 | 0.817 | 0.568 | 0.832 |
| UUUCACCUAGGACAUCGGGUG [Fam2.2 aminoacylation ribozyme variant] | 3.31 | 3 | 26.8 | 3.39 | 4.64 | 3.19 |
| AAGUUUGCUACUUGUCGCAAG [Fam3.1 aminoacylation ribozyme variant] | 1.06 | 1.05 | 1.01 | 0.928 | 1.21 | 1.12 |
| CUAGCUCAAACAAUCGGUCUG [Fam1A.1 aminoacylation ribozyme variant] | 0.742 | 0.817 | 4.58 | 0.776 | 3.09 | 0.914 |

| Sequence | self-aminoacylation (biotinyl-Leu-oxazolone) | self-aminoacylation (biotinyl-Ile-oxazolone) | self-aminoacylation (biotinyl-Phe-oxazolone) | self-aminoacylation (biotinyl-Met-oxazolone) | self-aminoacylation (biotinyl-Trp-oxazolone) | self-aminoacylation (biotinyl-Val-oxazolone) |
| --- | --- | --- | --- | --- | --- | --- |
| AUUCACCAAGGUAAUCGGGUG [Fam2.2 aminoacylation ribozyme variant] | 7.71 | 3.5 | 42.2 | 5.69 | 4.8 | 3.19 |
| AUUCACCUAGGUCCUUGGGUG [Fam2.2 aminoacylation ribozyme variant] | 5.09 | 2.7 | 31.7 | 4.11 | 3.42 | 2.51 |
| AUUACGCUGGUCAUCGACUGA [Fam2.1 aminoacylation ribozyme variant] | 1.73 | 1.48 | 0.691 | 0.889 | 1.65 | 1.24 |
| AUACACCUAUGUCAUCGGGUG [Fam2.2 aminoacylation ribozyme variant] | 3.86 | 2.46 | 17.3 | 3.42 | 3.58 | 2.52 |
| GUUCACCUAGGUCAUCGGGUU [Fam2.2 aminoacylation ribozyme variant] | 17.9 | 7.61 | 51.7 | 13.5 | 9.2 | 6.82 |
| CCACACUUCAGGCAAUCGGUC [Fam1B.1 aminoacylation ribozyme variant] | 1.11 | 1.14 | 1.47 | 1.14 | 1.28 | 1.27 |
| AUUAACCUGGUCAUCGAAUGA [Fam2.1 aminoacylation ribozyme variant] | 1.09 | 1.07 | 0.933 | 0.959 | 0.742 | 1.07 |
| AUACUUCCAACAAUCGGUCUG [Fam1A.1 aminoacylation ribozyme variant] | 0.743 | 0.782 | 0.856 | 0.705 | 0.721 | 0.727 |
| AGUACCCUGGGCAUCGAGUGA [Fam2.1 aminoacylation ribozyme variant] | 6.54 | 2.96 | 47 | 6.28 | 7.71 | 3.16 |
| AUUGCCCUGGGCAUCGAGUGA [Fam2.1 aminoacylation ribozyme variant] | 8.04 | 2.96 | 44.5 | 6.92 | 7.29 | 3.27 |
| AAGUUUGCAAAUAGUCGCAAG [Fam3.1 aminoacylation ribozyme variant] | 0.665 | 0.763 | 1.03 | 0.734 | 0.789 | 0.752 |
| CUACUUCAAACAAACGGUUUG [Fam1A.1 aminoacylation ribozyme variant] | 0.67 | 0.803 | 0.656 | 0.719 | 0.396 | 0.796 |
| AUUACCCUGGUCAUCGAAUGA [Fam2.1 aminoacylation ribozyme variant] | 1.08 | 1 | 0.974 | 1.07 | 0.908 | 1.06 |
| CUGCUUCAAAAAAUCGGUCUG [Fam1A.1 aminoacylation ribozyme variant] | 1.59 | 1.35 | 17.9 | 1.25 | 14.2 | 0.976 |
| AACUUUUCUAAUAGUCGCAAG [Fam3.1 aminoacylation ribozyme variant] | 2.33 | 1.97 | 3.55 | 2.11 | 2.05 | 1.71 |
| AUUACAGUGGUCAUCGAGUGA [Fam2.1 aminoacylation ribozyme variant] | 1.44 | 1.75 | 1.09 | 1.87 | 1.78 | 1.76 |
| CCAAACUUCAAGCAAUCGGUG [Fam1B.1 aminoacylation ribozyme variant] | 8.21 | 4.67 | 32.4 | 5.65 | 6.12 | 4.43 |
| ACCCACCUAGGUCAUCGGGUG [Fam2.2 aminoacylation ribozyme variant] | 5.88 | 5.07 | 54 | 5.93 | 6.03 | 5.64 |
| UACUUUGCUAAUAGUCGCAAG [Fam3.1 aminoacylation ribozyme variant] | 1.86 | 1.75 | 2.71 | 1.66 | 1.46 | 1.33 |
| AUUCACCUGGGUCAACGGGUG [Fam2.2 aminoacylation ribozyme variant] | 4.25 | 2.41 | 22.8 | 3.9 | 3.21 | 2.56 |
| AUACUUCAAACAAUCGGUAUG [Fam1A.1 aminoacylation ribozyme variant] | 0.732 | 0.925 | 3.52 | 0.732 | 2.3 | 0.744 |
| CAGUUUGGUAAUAGUCGCAAG [Fam3.1 aminoacylation ribozyme variant] | 1.73 | 1.85 | 2.57 | 1.73 | 1.97 | 1.67 |
| CUUCAUCUAGGUCAUCGGGUG [Fam2.2 aminoacylation ribozyme variant] | 7.99 | 4.55 | 38.8 | 6.52 | 5.49 | 4.7 |
| AUUCACGUAAGUCAUCGGGUG [Fam2.2 aminoacylation ribozyme variant] | 20.4 | 9.9 | 148 | 18.3 | 13.3 | 10.4 |
| AAGCUAGCUAAUAGUCGCAAG [Fam3.1 aminoacylation ribozyme variant] | 2.26 | 2.2 | 4.5 | 1.36 | 2.47 | 1.62 |
